From paper PMC5004899, “Architecture of the caveolar coat complex” (Journal of Cell Science, 2016)

Target: the molecule itself
Assay: cross-linking; DSP cross-linking in live HeLa cells; purified 80S-CCC; partial reduction of DSP crosslinks by titration of DTT; western blots

B1: cavin-1 (natural protein, human (endogenous in HeLa), UniProt Q6NZI2-1 1-390, looked up)
chain: MEDPTLYIVERPLPGYPDAEAPEPSSAGAQAAEEPSGAGSEELIKSDQVNGVLVLSLLDKIIGAVDQIQLTQAQLEERQAEMEGAVQSIQGELSKLGKAHATTSNTVSKLLEKVRKVSVNVKTVRGSLERQAGQIKKLEVNEAELLRRRNFKVMIYQDEVKLPAKLSISKSLKESEALPEKEGEELGEGERPEEDAAALELSSDEAVEVEEVIEESRAERIKRSGLRRVDDFKKAFSKEKMEKTKVRTRENLEKTRLKTKENLEKTRHTLEKRMNKLGTRLVPAERREKLKTSRDKLRKSFTPDHVVYARSKTAVYKVPPFTFHVKKIREGQVEVLKATEMVEVGADDDEGGAERGEAGDLRRGSSPDVHALLEITEESDAVLVDKSDSD
modifications: DSP-modified lysine residues (seven of 11 lysines in the HR1 domain, six of 17 in the HR2 domain; marked in Fig. 1D)
notes: human cavin-1 (PTRF), NP_036364.2; HR1 domain amino acids 49-163, HR2 domain amino acids 210-300; Detected with rabbit anti-PTRF (Abcam ab48824); also called PTRF; source: endogenous, HeLa lysate (cells DSP-cross-linked alive)
**Q.** Which “stoichiometry N” value does the source give for B1 here?
**A.** 3
